The source of these data is PMC12647877, “The SMC Hinge is a Selective Gate for Obstacle Bypass” (Nature Communications, 2025).

For data set [1], the target named is T1, scSmc4(598-923) condensin hinge/coiled coil with V721C and M821C (S. cerevisiae, UniProt Q12267 598-923, V721C | M821C).
T1 construct: Smc4, S. cerevisiae condensin, residues 598-923; also called scSmc4 hinge; source: Sf9, co-purified with scSmc2 hinge (Strep-Tactin XT, cation exchange, SEC)
T1 sequence (looked up): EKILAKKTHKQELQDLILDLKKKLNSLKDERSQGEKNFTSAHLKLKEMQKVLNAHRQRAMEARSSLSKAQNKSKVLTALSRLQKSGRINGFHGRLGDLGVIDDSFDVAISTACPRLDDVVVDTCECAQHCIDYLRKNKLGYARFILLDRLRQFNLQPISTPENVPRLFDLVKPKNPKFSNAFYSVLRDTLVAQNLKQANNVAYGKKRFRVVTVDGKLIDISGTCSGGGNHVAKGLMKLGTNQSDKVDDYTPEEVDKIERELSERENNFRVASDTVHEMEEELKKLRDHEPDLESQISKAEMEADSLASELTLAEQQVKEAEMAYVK
The data set can be described thus: cross-linking; cysteine cross-linking with BMOE (0.58 mM, 6 min on ice) of purified scSmc2/4 hinge, 1.4 µM in CB buffer (50 mM NaCl, 1 mM MgCl2, 50 mM HEPES pH 7.5, 1 mM TCEP, 5 % glycerol); SDS-PAGE. The settings on record: both partners purified.

Data set [2] deals with the molecule itself. The data set can be described thus: cross-linking; cysteine cross-linking with BMOE (1 mM, 45 s, quenched with DTT) of purified hinge/coiled coil constructs in 20 mM Tris-HCl, 50 mM NaCl; SDS-PAGE, and denaturing agarose gels of entrapped ssDNA circles.

B1: scSmc2(443-740) condensin hinge/coiled coil with S560C and K639C (domain or fragment, S. cerevisiae, UniProt P38989 443-740, looked up)
chain: KDNELNVKHVKQCQETCDKLRARLVEYGFDPSRIKDLKQREDKLKSHYYQTCKNSEYLKRRVTNLEFNYTKPYPNFEASFVHGVVGQLFQIDNDNIRYATALQTCAGGRLFNVVVQDCQTATQLLERGRLRKRVTIIPLDKIYTRPISSQVLDLAKKIAPGKVELAINLIRFDESITKAMEFIFGNSLICEDPETACKITFHPKIRARSITLQGDVYDPEGTLSGGSRNTSESLLVDIQKYNQIQKQIETIQADLNHVTEELQTQYATSQKTKTIQSDLNLSLHKLDLAKRNLDANPS
notes: Smc2, S. cerevisiae condensin, residues 443-740; also called scSmc2 hinge; source: Sf9, co-purified with scSmc4 hinge (Strep-Tactin XT, cation exchange, SEC)
For B1, the binding result in data set [1] was “binds”.

B2: bsuSmc(400-776; C437S, R558C, N634C) hinge/coiled coil (domain or fragment, B. subtilis, UniProt P51834 400-776, looked up)
chain: QLLDDQMSQSAVTLQRLADNNEKHLQERHDISARKAASETEFARIEQEIHSQVGAYRDMQTKYEQKKRQYEKNESALYQAYQYVQQARSKKDMLETMQGDFSGFYQGVKEVLKAKERLGGIRGAVLELISTEQKYETAIEIALGASAQHVVTDDEQSACKAIQYLKQNSFGRATFLPLSVIRDRQLQSRDAETAARHSSFLGVASELVTFDPAYRSVIQNLLGTVLITEDLKGACELAKLLGHRYRIVTLEGDVVNPGGSMTGGAVKKKNNSLLGRSRELEDVTKRLAEMEEKTALLEQEVKTLKHSIQDMEKKLADLRETGEGLRLKQQDVKGQLYELQVAEKNINTHLELYDQEKSALSESDEERKVRKRKLEEE
notes: Smc (chromosome partition protein Smc), Bacillus subtilis, residues 400-776; also called bsuSmc hinge; B. subtilis Smc hinge; source: E. coli BL21(DE3) Gold, purified (as the scSmc5/6 hinge constructs: HisTrap, SEC)
Regarding B2, the binding result in data set [2] was “binds”.
